Measured values as given in PMC6274713.

Experiments:
MLL4 3500-3630 = MLL4 3500-3630 (UniProt O14686); experiment: MST; conditions: EMSA: LightShift RNA EMSA kit protocol, 1 or 2 nM RNA, 30 min at room temperature, 4 or 6% native PAGE, MST buffer, pH and temperature not given in the …
MLL4 4210-4280 = MLL4 4210-4280 (UniProt O14686); experiment: MST; conditions: apparent Kd; EMSA: LightShift RNA EMSA kit protocol, 1 or 2 nM RNA, 30 min at room temperature, 4 or 6% native PAGE; MST buffer, pH and temperature not given in the …

Row | Substance | Kd (MLL4 3500-3630; apparent, from T-jump, aggregation above 1:20 RNA:protein, no saturation) [nM] | Kd (MLL4 4210-4280) [µM] | Kd (MLL4 3500-3630) [nM]
1 | HOTAIR440 | 100 | 13.1 | –
2 | HOTAIR300 | – | – | 970
3 | MEG3 full length | – | – | 722
